Measured values published in US20120045393A1 (priority 2009, published 2012).
Like-named read-outs stand apart in the source and are kept apart here. Non-standard residues stand in square brackets, D forms with d. Residues, ends and D or L forms follow the SMILES beside them. *: point of attachment. X1 = NC(=O)NNC(=O)[C@@H]1CCCN1C[C@H](Cc1ccc(C(=O)c2ccccc2)cc1)N*; DOTA = O=C(O)CN1CCN(CC(=O)O)CCN(CC(=O)*)CCN(CC(=O)O)CC1; Bpa = N[C@@H](Cc1ccc(C(=O)c2ccccc2)cc1)C(=O)O; d2Nal = N[C@H](Cc1ccc2ccccc2c1)C(=O)O; pGlu = O=C1CC[C@@H](C(=O)O)N1; DO3A10CM = not defined here; Bpa4 = non-natural residue; Ampt4 = not defined here; azaGly = NNC(=O)O

B1: BRU-2994 (peptide)
peptide: XRWSHXWXXX
modifications: N-terminal DO3A10CM; Dnal2 at 1; Darg at 6; Bpa4 at 8; Flp4 at 9; azaGly-NH2 at 10
B2: BRU-3072 (peptide)
peptide: XRWSHXWXXX
modifications: N-terminal DO3A10CM; Dnal2 at 1; Darg at 6; Bpa4 at 8; Thz at 9; azaGly-NH2 at 10
B3: BRU-2996 (peptide)
peptide: XRWSHXWXXX
modifications: N-terminal DO3A10CM; Dnal2 at 1; Darg at 6; Bpa4 at 8; Pip at 9; azaGly-NH2 at 10
B4: BRU-2993 (peptide)
peptide: XRWSHXWXXX
modifications: N-terminal DO3A10CM; Dnal2 at 1; Darg at 6; Bpa4 at 8; Aze at 9; azaGly-NH2 at 10
B5: BRU-3064 (peptide)
peptide: DO3A10CM-[d2Nal]RWSH[dR]W[Bpa4]-OH
modifications: reading uncertain; also: printed as DO3A10CM-Dnal2-Arg-Trp-Ser-His-Darg-Trp-Bpa4-OH
B6: BRU-3081 (peptide)
peptide: XRWSHXWXPX
modifications: N-terminal DO3A10CM; Dnal2 at 1; Darg at 6; Bpa4-psi(CH2N)-Pro reduced amide isostere at 8-9; azaGly-NH2 at 10
B7: BRU-2995 (peptide)
peptide: DO3A10CM-[d2Nal]RWSH[dR]W[Bpa][Ampt4][azaGly]-NH2
modifications: reading uncertain; also: printed as DO3A10CM-Dnal2-Arg-Trp-Ser-His-Darg-Trp-Bpa4-Ampt4-azaGly-NH2

Legend:
[1] = system: LHRH binding sites on human ovarian cancer cells (EFO-27);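 note: Cell-associated radioactivity on confluent EFO-27 monolayers in 96-well plates, measured by microplate scintillation counting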
[2] = In vitro metabolic stability in mouse liver homogenate at 37° C.; type: in vitro ADME; conditions: for remaining at 1 h, 0.3 mg/mL: female, Tac:NCr:Foxn1nu/nu, mouse, tissue homogenate, pH 7.2
Protocol: Livers from 10 female Tac:NCr:Foxn1^nu/nu mice were excised, rinsed with ice cold PBS (no Ca^++ or Mg^++) and weighed. The tissues were minced with scissors in Petri dishes on ice with Tris buffered saline (Pierce BupH™ Tris buffered saline packs, #28376; 25 mM Tris, 150 mM NaCl, pH 7.2). After mincing, the tissues were dounce homogenized, and the total volume adjusted with ice cold Tris buffer (4 mL for every gram of excised tissue). The homogenate was centrifuged at ˜4000×g for 10 min at 4° C. The supernatants were aliquoted into Eppendorf tubes on ice (200 and 100 μl volumes) and stored at −80° C. Kidney homogenates were similarly prepared. […] The mixture was centrifuged at 4° C. for 20 min at 20,000×g to precipitate the protein; 10 μL (˜7.6 μCi) of the supernatant was injected into the HPLC for the analysis. […] Peaks at these retention times were also observed in the in vivo plasma sample (FIG. 1). […] After 0 and 60 min, the sample was removed from the incubator, immediately cooled on ice and 2 μL of 10 mM EDTA and 0.2 mL of ice-cooled MeOH were added, mixing after each addition. The proteins in the sample were separated by centrifugation at 14,000 rpm for 20 min. The supernatant was harvested and, in the samples spiked with the ^177Lu-analog, the radioactivity was measured using a Capintec dose calibrator to determine recovery. The sample was then analyzed by HPLC. […] After 0 and 60 min, the sample was removed from the incubator, immediately cooled on ice and 2 μL of 10 mM EDTA and 0.24 mL of ice-cooled methanol was added, mixing after each addition. The proteins in the sample were separated by centrifugation at 14,000 rpm for 20 min. The supernatant was collected and analyzed by LC/MS as described earlier herein.

[3] = biological target: LHRH receptor (LHRH binding sites) on EFO-27 human ovarian cancer cells (human); test: competition with [125I-Tyr8]BRU-2477 for binding to EFO-27 cells
[4] = biological target: LHRH receptor (LHRH binding sites) on EFO-27 human ovarian cancer cells (human); test: competition with [125I-Tyr8]BRU-2477, EFO-27 cells
[5] = biological target: LHRH binding sites on EFO-27 human ovarian cancer cells (human); test: competition with [125I-Tyr8]BRU-2477 on EFO-27 cells
[6] = Table 19: analogs used in the stabilization studies

Molecule | EC50 [3] [nM] | EC50 [4] [nM] | EC50 [5] [nM] | further results
N=C(N)NCCC[C@@H](NC(=O)[C@H](Cc1c[nH]cn1)NC(=O)[C@H](CO)NC(=O)[C@H](Cc1c[nH]c2ccccc12)NC(=O)[C@H](Cc1c[nH]cn1)NC(=O)[C@@H]1CCC(=O)N1)C(=O)N[C@@H](Cc1c[nH]c2ccccc12)C(=O)N[C@@H](Cc1ccc(O)cc1)CN1CCC[C@H]1C(=O)NNC(N)=O [BRU-3122] |  |  |  | EC50 [1, 6]: 3130 nM; remaining at 1 h, 0.3 mg/mL [2]: 100%
N=C(N)NCCC[C@H](NC(=O)[C@@H](Cc1ccc2ccccc2c1)NC(=O)CN1CCN(CC(=O)O)CCN(CC(=O)O)CCN(CC(=O)O)CC1)C(=O)N[C@@H](Cc1c[nH]c2ccccc12)C(=O)N[C@@H](CO)C(=O)N[C@@H](Cc1c[nH]cn1)C(=O)N[C@H](CCCNC(=N)N)C(=O)N[C@@H](Cc1c[nH]c2ccccc12)C(=O)N[C@@H](Cc1ccc(C(=O)c2ccccc2)cc1)C(=O)N1C[C@H](N)C[C@H]1C(=O)NNC(N)=O [BRU-2995] |  |  |  | EC50 [1, 6]: 410 nM; metabolism in liver homogenate [2]: no metabolism was observed
N=C(N)NCCC[C@@H](NC(=O)[C@H](Cc1c[nH]cn1)NC(=O)[C@H](CO)NC(=O)[C@H](Cc1c[nH]c2ccccc12)NC(=O)[C@H](Cc1c[nH]cn1)NC(=O)[C@@H]1CCC(=O)N1)C(=O)N[C@@H](Cc1c[nH]c2ccccc12)C(=O)N[C@@H](Cc1ccc(O)cc1)C(=O)N1C[C@@H](N)C[C@H]1C(=O)NNC(N)=O [BRU-3123] (HELM PEPTIDE1{[Glp].H.W.S.H.[dR].W.Y.[N[C@H]1C[C@@H](C(=O)[*:2])N([*:1])C1].[O=C(NN[*:1])[*:2]].[am]}$$$$V2.0) |  |  |  | EC50 [1, 6]: 990 nM; remaining at 1 h, 0.3 mg/mL [2]: 100%
N=C(N)NCCC[C@@H](NC(=O)[C@H](Cc1c[nH]cn1)NC(=O)[C@H](CO)NC(=O)[C@H](Cc1c[nH]c2ccccc12)NC(=O)[C@H](Cc1c[nH]cn1)NC(=O)[C@@H]1CCC(=O)N1)C(=O)N[C@@H](Cc1c[nH]c2ccccc12)C(=O)N[C@@H](Cc1ccc(O)cc1)C(=O)N1CSC[C@H]1C(=O)NNC(N)=O [BRU-3124] (HELM PEPTIDE1{[Glp].H.W.S.H.[dR].W.Y.[O=C([C@@H]1CSCN1[*:1])[*:2]].[O=C(NN[*:1])[*:2]].[am]}$$$$V2.0) |  |  |  | remaining at 1 h, 0.3 mg/mL [2]: 38.7 ± 5.9%
N=C(N)NCCC[C@H](NC(=O)[C@@H](Cc1ccc2ccccc2c1)NC(=O)CN1CCN(CC(=O)O)CCN(CC(=O)O)CCN(CC(=O)O)CC1)C(=O)N[C@@H](Cc1c[nH]c2ccccc12)C(=O)N[C@@H](CO)C(=O)N[C@@H](Cc1c[nH]cn1)C(=O)N[C@H](CCCNC(=N)N)C(=O)N[C@@H](Cc1c[nH]c2ccccc12)C(=O)N[C@@H](Cc1ccc(C(=O)c2ccccc2)cc1)C(=O)N1CSC[C@H]1C(N)=O [BRU-3072] |  |  |  | times more potent than the comparator analog ([1]; BRU-2441 vs BRU-2439, BRU-2666 vs Sar1 analog, BRU-3072 vs Pro9 analog): ~2.5; metabolism in liver homogenate ([2]; 37° C. for 60 min, Lu complexes of DO3A10CM peptides, unlabeled BRU-2477 derivatives): no metabolism was observed
N=C(N)NCCC[C@@H](NC(=O)[C@H](Cc1c[nH]cn1)NC(=O)[C@H](CO)NC(=O)[C@H](Cc1c[nH]c2ccccc12)NC(=O)[C@H](Cc1c[nH]cn1)NC(=O)[C@@H]1CCC(=O)N1)C(=O)N[C@@H](Cc1c[nH]c2ccccc12)C(=O)N[C@@H](Cc1ccc(O)cc1)C(=O)N1CCC[C@H]1C(=O)NNC(N)=O [BRU-2477, pGlu-His-Trp-Ser-His-Darg-Trp-Tyr-Pro-azaGly-NH2, reference compound] (HELM PEPTIDE1{[Glp].H.W.S.H.[dR].W.Y.P.[O=C(NN[*:1])[*:2]].[am]}$$$$V2.0) |  |  |  | EC50 ([1]; EFO-27 cells, competition with [125I-Tyr8]BRU-2477, 90 min): 740 nM; EC50 [1, 6]: 840 nM; remaining at 1 h, 0.3 mg/mL [2]: 11.9 ± 2.4%
N=C(N)NCCC[C@H](NC(=O)[C@@H](Cc1ccc2ccccc2c1)NC(=O)CN1CCN(CC(=O)O)CCN(CC(=O)O)CCN(CC(=O)O)CC1)C(=O)N[C@@H](Cc1c[nH]c2ccccc12)C(=O)N[C@@H](CO)C(=O)N[C@@H](Cc1c[nH]cn1)C(=O)N[C@H](CCCNC(=N)N)C(=O)N[C@@H](Cc1c[nH]c2ccccc12)C(=O)N[C@@H](Cc1ccc(C(=O)c2ccccc2)cc1)C(=O)N1C[C@H](F)C[C@H]1C(=O)NNC(N)=O [Lu-BRU-2994] |  |  |  | EC50 ([1]; Table 22, unit inferred): 600 nM; remaining at 1 h, 0.3 mg/mL [2]: 45.7 ± 1.2%
N=C(N)NCCC[C@H](NC(=O)[C@@H](Cc1ccc2ccccc2c1)NC(=O)CN1CCN(CC(=O)O)CCN(CC(=O)O)CCN(CC(=O)O)CC1)C(=O)N[C@@H](Cc1c[nH]c2ccccc12)C(=O)N[C@@H](CO)C(=O)N[C@@H](Cc1c[nH]cn1)C(=O)N[C@H](CCCNC(=N)N)C(=O)N[C@@H](Cc1c[nH]c2ccccc12)C(=O)N[C@@H](Cc1ccc(C(=O)c2ccccc2)cc1)CN1CCC[C@H]1C(=O)NNC(N)=O [BRU-3081] ({DOTA}-[d2Nal]RWSH[dR]W-X1) |  |  |  | EC50 [1, 6]: 300 nM; metabolism in liver homogenate [2]: no metabolism was observed
XRWSHXW (as printed: DO3A10CM-Dnal2-Arg-Trp-Ser-His-Darg-Trp-OH) [BRU-3046] | 15800 |  |  | 
B1 | 600 | 600 | 600 | 
[pGlu]HWSH[dR]WYP[azaGly]-NH2 (also: reduced amide bond Ψ(CH2N) between Tyr8 and Pro9) [BRU-3122] | 3130 |  |  | 
B2 | 160 | 160 | 160 | fold improved binding against the Pro9 analog (BRU-2813) [5]: 2.5 fold
B3 | 350 | 350 | 350 | 
B4 | 380 | 380 | 380 | 
[pGlu]HWSH[dR]WYP[azaGly]-NH2 [BRU-2477] | 840 |  | 740 | 
B5 | 720 |  |  | 
B6 | 300 | 300 |  | 
B7 | 410 | 410 | 410 | 
